The values that follow come from article PMC5231405 (eLife, 2016).

Where a chain is given by its changes, count along the chain named.

The target in assay [1] is T1, DesKCSTAB:DesR-REC complex (phosphatase complex) (Bacillus subtilis, UniProt O34757, S150I/S153L/R157I).
T1 construct: gene desK; DesK cytoplasmic portion with DesR receiver domain; His-tag and TEV site on each, co-expressed in E. coli BL21(DE3); 2:2 complex; with Transcriptional regulatory protein DesR
The assay is described as follows: X-ray crystallography. As to conditions: Mg2+, BeF3-; pH 8.5; CA (ATP-binding) domain; 2.79 A.

The target in the next assay is CheY (Escherichia coli) (UniProt P0AE67). As to conditions: cited from earlier work.
Assay [2] concerns the target T2, DesKC_(H188E), free protein used in ITC (B. subtilis, UniProt O34757 154-370, H188E).
T2 construct: DesK, histidine kinase of Bacillus subtilis; cytoplasmic portion (DesKC); Kept apart from m2 because it stood alone in the calorimeter cell, whereas m2 was co-expressed and purified with DesR-REC; It may be the same polypeptide as m2
T2 sequence: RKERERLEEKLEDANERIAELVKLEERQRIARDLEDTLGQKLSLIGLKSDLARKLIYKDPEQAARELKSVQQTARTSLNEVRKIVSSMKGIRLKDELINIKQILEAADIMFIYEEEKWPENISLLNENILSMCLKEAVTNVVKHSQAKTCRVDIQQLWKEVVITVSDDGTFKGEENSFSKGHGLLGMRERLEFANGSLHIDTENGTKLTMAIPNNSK
The assay can be described thus: ITC; VP-ITC; DesR-REC (350-400 µM) injected into the cell with DesKC variants (25-30 µM); 15°C; 20 mM Tris.HCl pH 8, 0.3 M NaCl, 10 mM MgCl2, 0.5 mM AMP-PNP; duplicate; fitted to a two independent sequential site model. On the set-up: unit not given here. As to conditions: both partners purified. On the technique in general: Isothermal titration calorimetry measures the heat released or taken up as one component is titrated into another.

The target in assay [3] is T3, DesKC_(H188V), mutant of the cytoplasmic portion of DesK trapped in the phosphatase state (B. subtilis, UniProt O34757 154-370, H188V).
T3 construct: DesK, histidine kinase of Bacillus subtilis; cytoplasmic portion (DesKC); also called DesK_(H188V)
T3 sequence: T2 sequence with E35V
The description is as above. Also noted: unit not given here. As to conditions: both partners purified.

Assay [4] has as its target T2, DesKC_(H188E), free protein used in ITC. Described as above. As to conditions: both partners purified.
For assay [5], the target named is T3, DesKC_(H188V), mutant of the …. The description is as above. As to conditions: both partners purified.
Assay [6] deals with DesKC_(STAB), phosphatase-constitutive mutant of the cytoplasmic portion of the histidine kinase DesK (B. subtilis). The assay can be described thus: SEC-SAXS; purified DesK-DesR complexes at 10 mg/mL in 50 mM Tris.HCl pH 8.0, 300 mM NaCl, Superdex 75 5/150 GL, beamline SWING; theoretical curves of crystal models fitted with CRYSOL, mixtures with OLIGOMER
(In general: In gel filtration, larger molecules generally elute earlier.)

T1 sequence (O34757 150-370 S150I/S153L/R157I, one chain of several): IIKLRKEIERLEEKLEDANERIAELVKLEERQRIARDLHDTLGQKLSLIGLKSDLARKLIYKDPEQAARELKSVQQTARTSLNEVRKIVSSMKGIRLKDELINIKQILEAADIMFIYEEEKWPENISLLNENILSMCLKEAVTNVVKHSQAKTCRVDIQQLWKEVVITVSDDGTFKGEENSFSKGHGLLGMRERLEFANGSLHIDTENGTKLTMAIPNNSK
CheY (Escherichia coli), sequence (P0AE67 2-129): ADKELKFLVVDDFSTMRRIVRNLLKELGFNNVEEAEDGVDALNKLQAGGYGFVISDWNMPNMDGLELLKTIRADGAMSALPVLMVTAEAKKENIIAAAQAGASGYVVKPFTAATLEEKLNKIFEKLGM

`Nc1ncnc2c1ncn2[C@@H]1O[C@H](COP(=O)(O)OP(=O)(O)CP(=O)(O)O)[C@@H](O)[C@H]1O` [AMP-PCP]: the X-ray crystallography result in assay [1] is “one AMP-PCP (ATP analogue) moiety is bound to each CA domain”.
CheA (from UniProt P07363): the Kd (as a rule, the equilibrium constant for the complex coming apart) with CheY (Escherichia coli) is 30 nM.

B1: DesR-REC, free protein used as ligand in ITC (domain or fragment, B. subtilis)
chain: MISIFIAEDQQMLLGALGSLLNLEDDMEVVGKGTTGQDAVDFVKKRQPDVCIMDIEMPGKTGLEAAEELKDTGCKIIILTTFARPGYFQRAIKAGVKGYLLKDSPSEELANAIRSVMNGKRIYAPELMEDLYSEA
notes: DesR, response regulator of Bacillus subtilis, REC domain; Probably from pQE80-DesR-REC in E. coli TOP10F', the plasmid and host that the methods name for functional assays (Trajtenberg et al., 2014)
In the case of B1, the “dH, first printed row (two sequential sites fit)” value in assay [2] was found to be 22000; in assay [3] it was 15000. Besides, the “dH, second printed row (two sequential sites fit)” value in assay [2] came to 21000; in assay [3], 14000. In addition, the stoichiometry N (usually the number of molecules, sites or subunits per partner or assembly) is 1 RR monomers per HK dimer in assay [4] and 2 RR monomers per HK dimer in assay [5]. The stoichiometry N (RR monomers per HK dimer) in assay [6] stood at 2.
